Data as given in PMC3229523, “Identification of Lactoferricin B Intracellular Targets Using an Escherichia coli Proteome Chip” (PLoS ONE, 2011).
Ends that are not written are not given here. * marks the point of attachment. Biotin = O=C1N[C@H]2[C@H](CS[C@H]2CCCCC(=O)*)N1

How the values were obtained:
Assay in all cases: peptide or protein array; E. coli proteome chip: purified His-tagged proteins printed in duplicate on Fullmoon slides, blocked with 1% BSA; 10 nM N-terminal biotinylated LfcinB with 1% BSA, room temperature, 1 h; detected with DyLight 649-labeled streptavidin, ratio to DyLight 549-labeled anti-His antibody; ProCAT normalisation, local cut-off; triplicate chips
Conditions in all cases: both partners purified
HemC = target: T1, HemC (E. coli K-12, UniProt P06983 1-313)
T1 construct: HemC, E. coli K-12
T1 sequence (looked up): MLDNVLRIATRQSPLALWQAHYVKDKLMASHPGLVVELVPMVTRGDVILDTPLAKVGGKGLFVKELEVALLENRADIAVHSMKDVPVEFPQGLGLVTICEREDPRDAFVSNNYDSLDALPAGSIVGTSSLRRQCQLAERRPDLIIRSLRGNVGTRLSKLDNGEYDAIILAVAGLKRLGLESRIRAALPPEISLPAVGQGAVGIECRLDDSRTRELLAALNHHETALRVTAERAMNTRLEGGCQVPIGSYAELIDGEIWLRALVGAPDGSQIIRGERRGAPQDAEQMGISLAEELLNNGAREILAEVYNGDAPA

EnvR = target: T2, EnvR (E. coli K-12, UniProt P0ACT2 1-220)
T2 construct: EnvR, E. coli K-12
T2 sequence (looked up): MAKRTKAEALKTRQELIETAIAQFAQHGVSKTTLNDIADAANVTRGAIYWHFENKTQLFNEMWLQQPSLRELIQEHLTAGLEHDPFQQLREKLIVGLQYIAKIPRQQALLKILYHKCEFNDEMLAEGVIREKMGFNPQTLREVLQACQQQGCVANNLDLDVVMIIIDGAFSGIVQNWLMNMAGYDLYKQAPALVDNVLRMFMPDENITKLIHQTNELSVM

AdiY = target: T3, AdiY (E. coli K-12, UniProt P33234 1-253)
T3 construct: AdiY, E. coli K-12
T3 sequence (looked up): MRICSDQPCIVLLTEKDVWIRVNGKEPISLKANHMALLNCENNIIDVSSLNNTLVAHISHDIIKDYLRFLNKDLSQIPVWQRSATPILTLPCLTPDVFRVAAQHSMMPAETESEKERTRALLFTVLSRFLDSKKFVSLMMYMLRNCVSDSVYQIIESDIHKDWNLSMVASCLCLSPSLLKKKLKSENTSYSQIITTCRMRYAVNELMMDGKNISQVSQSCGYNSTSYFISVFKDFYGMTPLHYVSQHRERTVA

YciT = target: T4, YciT (E. coli K-12, UniProt P76034 1-249)
T4 construct: YciT, E. coli K-12
T4 sequence (looked up): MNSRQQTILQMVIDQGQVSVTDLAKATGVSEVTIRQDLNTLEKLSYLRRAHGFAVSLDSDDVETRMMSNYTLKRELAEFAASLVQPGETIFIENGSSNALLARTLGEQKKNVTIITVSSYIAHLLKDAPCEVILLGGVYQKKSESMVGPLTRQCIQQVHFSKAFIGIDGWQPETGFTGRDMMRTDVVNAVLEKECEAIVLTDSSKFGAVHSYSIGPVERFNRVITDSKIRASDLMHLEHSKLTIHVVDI

MetL = target: T5, MetL (E. coli K-12, UniProt P00562 1-810)
T5 construct: MetL, E. coli K-12
T5 sequence (looked up): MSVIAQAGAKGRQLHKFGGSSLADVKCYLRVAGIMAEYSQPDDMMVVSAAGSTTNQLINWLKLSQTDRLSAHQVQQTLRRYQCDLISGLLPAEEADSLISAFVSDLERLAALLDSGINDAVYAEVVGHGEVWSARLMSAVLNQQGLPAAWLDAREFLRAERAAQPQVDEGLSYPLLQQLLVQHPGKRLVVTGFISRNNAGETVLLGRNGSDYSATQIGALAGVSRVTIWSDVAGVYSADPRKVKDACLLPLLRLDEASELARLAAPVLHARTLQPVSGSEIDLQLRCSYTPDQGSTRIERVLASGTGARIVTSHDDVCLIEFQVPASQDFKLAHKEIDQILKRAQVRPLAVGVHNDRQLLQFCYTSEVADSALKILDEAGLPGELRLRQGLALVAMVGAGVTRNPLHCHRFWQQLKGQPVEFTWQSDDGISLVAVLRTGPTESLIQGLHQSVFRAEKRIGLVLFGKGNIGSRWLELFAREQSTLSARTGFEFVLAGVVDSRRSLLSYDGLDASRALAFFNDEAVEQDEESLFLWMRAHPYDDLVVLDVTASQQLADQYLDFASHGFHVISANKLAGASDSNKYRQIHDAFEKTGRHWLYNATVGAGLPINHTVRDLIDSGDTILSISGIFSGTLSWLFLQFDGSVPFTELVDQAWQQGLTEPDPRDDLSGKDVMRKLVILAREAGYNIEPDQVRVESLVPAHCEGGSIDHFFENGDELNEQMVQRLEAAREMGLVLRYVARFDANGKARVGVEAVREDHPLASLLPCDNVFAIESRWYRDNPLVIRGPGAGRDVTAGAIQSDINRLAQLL

Measured: binding result

B1: N-terminal biotinylated Lactoferricin B (peptide, UniProt P24627 36-60, looked up)
peptide: Biotin-FKCRRWQWRMKKLGAPSITCVRRAF
modifications: ends and bridges not checked
notes: lactoferricin B (LfcinB), cationic antimicrobial peptide of 25 amino acids; also called biotinylated LfcinB; biotin-labeled LfcinB; source: bought: Kelowna Inc
binds: HemC | EnvR | AdiY | YciT | MetL
